# Experiments:
# [1] = biological target: LjARPC3 (yeast two-hybrid fusion) (Lotus japonicus); assay: two-hybrid; S. cerevisiae AH109; quantitative β-galactosidase (lacZ) activity under the control of the GAL4 promoter
# [2] = biological target: NIN C-terminal half (RWP-RK domain) (Lotus japonicus, UniProt Q9S7B1 520-878); assay: EMSA; 0.5 or 1 ug protein; unlabeled competitor 5x, 10x or 50x; EMSA with LightShift chemiluminescent kit (Thermo); buffer, salt, pH and temperature not stated; conditions: protein: recombinant; tags: C-terminal His; label: biotin; blunt
# Chain of NIN C-terminal half (RWP-RK domain) (Q9S7B1 entry or part of it): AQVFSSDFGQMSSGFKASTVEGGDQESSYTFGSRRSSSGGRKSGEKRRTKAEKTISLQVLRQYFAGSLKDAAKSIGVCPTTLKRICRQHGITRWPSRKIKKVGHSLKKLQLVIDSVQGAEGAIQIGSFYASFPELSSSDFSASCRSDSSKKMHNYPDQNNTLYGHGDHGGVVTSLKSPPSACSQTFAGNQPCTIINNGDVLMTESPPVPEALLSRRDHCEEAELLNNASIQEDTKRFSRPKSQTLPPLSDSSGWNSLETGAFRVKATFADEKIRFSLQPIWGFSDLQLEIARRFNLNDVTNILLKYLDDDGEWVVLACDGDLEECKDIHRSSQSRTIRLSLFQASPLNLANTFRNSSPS
Molecule,β-galactosidase (LacZ) activity [1] [units],binding result [2]
SCARN C-terminal WA domain (yeast two-hybrid fusion) (domain or fragment),18.1,
SCARN promoter S1 (dsDNA) DNA 1: GTAGTAGAGAGATAGAGTGAGTGAAAGGGTTTGAGGAATG DNA 2: CATTCCTCAAACCCTTTCACTCACTCTATCTCTCTACTAC,,binds
SCARN promoter S2 (dsDNA) DNA 1: AAGAGGTGAAACTGAAGGAGTCAAGAGGATTGCAGAAGAA DNA 2: TTCTTCTGCAATCCTCTTGACTCCTTCAGTTTCACCTCTT,,binds
SCARN promoter S3 (dsDNA) DNA 1: AGTCAAGAGGATTGCAGAAGAAAGTAGGGTTTGTGAATCG DNA 2: CGATTCACAAACCCTACTTTCTTCTGCAATCCTCTTGACT,,binds

# Reference: PMC4627827, “SCARN a Novel Class of SCAR Protein That Is Required for Root-Hair Infection during Legume Nodulation”
